Patent US7422862B2, “Methods for identifying modulators of apoptosis” (The Burnham Institute, priority 2001, dated 2008)
No end group written: not given here.

What was measured:
Bax [1] = target: T1, Bax (Homo sapiens, UniProt Q07812); assay: Co-immunoprecipitation of GFP-Humanin fusion polypeptides with Bax in transfected cells; assay type: binding; design: expressed in transfected cells; host or cells: HEK293T; key to Bax binding: +: ability to bind Bax was determined by co-immunoprecipitation assay; −: lacked Bax-binding activity; settings: for Bax binding: GFP-fusion polypeptides, co-immunoprecipitation
Source text: Humanin (HN) cDNA was sub-cloned into a Green Fluorescence Protein (GFP) expression vector GFP-Cl at the Xhol/Hind III sites, producing a GFP-HN fusion polypeptide. GFP and GFP-HN were transfected into 293T cells with pcDNA3-HA-Bax. Cell lysates from these cells were immunoprecipitated with anti-GFP antibody and subsequently blotted with anti-HA antibody. The lysates were also blotted with ani-GFP antibody to confirm polypeptide expression. […] The data shown were obtained using the cytosolic form of Humanin; however, both cytosolic and mitochondrial forms of Humanin were tested and the results were the same.
Co-immunoprecipitation assays were performed using Humanin polypeptides expressed as fusion polypeptides with the Green Fluorescent Protein (GFP) in human cells. Wild-type Humanin fused to GFP is referred to as GFP-HN and a mutant form of Humanin, where the cysteine at position 8 is replaced with proline, fused to GFP is referred to as GFP-C8P. […] Immunoblot analysis of lysates of the transfected cells confirmed production of all proteins. In addition, GFP-HN also coimmunoprecipitated endogenous Bax from cell lines, which contain relatively high levels of the Bax protein.
Immunoblotting and immunoprecipitations were performed as follows. Immunoblotting was performed as described previously (Fields and Song, Nature 340:245-246 (1989)). For co-immunoprecipitations, cells were cultured in 50 uM […] Valine Alanine Asparate fluoromethyl-ketone (zVAD-fmk) to prevent apoptosis. Cells were suspended in lysis buffer (50 mM Tris-HCl, pH7.4; 150 mM NaCl; 20 mM EDTA; 50 mM NaF; 0.5% NP-40; 0.1 mM Na3VO4; 20 ug/ml Leupeptin; 20 ug/ml Aprotinin; 1 mM DTT; and 1 mM PMSF). Lysates (200 ul diluted in 1 ml final volume of lysis buffer) were cleared by incubation with 15 ul of protein G-Sepharose 4B (Zymed) and then incubated with 15 ul of polyclonal antibody and 15 ul of protein G at 4° C. overnight. Beads were then washed 4 times with 1.5 mls lysis buffer before boiling in Laemmli sample buffer and performing SDS-PAGE/immunoblotting.
(§1) In order to explore whether a correlation exists between Humanin binding to Bax and Humanin-mediated suppression of apoptosis, Bax was co-expressed with various GFP-fusion polypeptides encoding wild-type, full-length Humanin or various truncation and site-specific mutants of Humanin (Table 1). Expression of all GFP-fusion polypeptides was confirmed by immunoblotting, and ability to bind Bax was determined by co-immunoprecipitation assay. Each Humanin mutant was scored for ability to suppress apoptosis induced by Bax over-expression by >50% using a 3:1 ratio of HN:Bax plasmid DNA. […] Based on these studies, an active region of the 24 amino-acid Humanin peptide, mapped to residues 7-17.

Bax [2] = target: T1, Bax; assay: Suppression of apoptosis induced by Bax over-expression (Humanin mutants); assay type: cell-based; design: expressed in transfected cells; host or cells: HEK293T; settings: GFP-fusion polypeptides, 3:1 ratio of HN:Bax plasmid DNA
Protocol: (§2) Apoptosis assays were performed as follows. Both floating and adherent cells (after trypsinization) were collected 48 hr after transfection, fixed, and stained using 4′,6-diamidine-2′-phenylindole dihydrochloride (DAPI) for assessing apoptosis based on nuclear fragmentation and chromatin condensation (Fields and Song, supra (1989)).
as §1
Cell culture and transfections were performed as follows. CSM14.1, HCT116, Cos-7, and SF268 cells were cultured in DMEM high glucose media (Irvine Scientific, Santa Ana, Calif.) containing 10% fetal bovine serum (FBS). PC-3 cells were cultured with RPMI 1640 media containing 10% FBS. Transfection of cells was performed using SuperFect (Qiagen, Chatsworth, Calif.) or LipofectaminePLUS reagent ([…]).

Bax [3] = target: T1, Bax; assay: Bax-induced apoptosis in transfected neuronal cells (DAPI staining); assay type: cell-based; design: expressed in transfected cells; settings: CSM14.1 cells, 48 h, DAPI
Protocol: (A) HEK293T cells were transfected with pcDNA3-HA-Bax together with plasmids encoding GFP, GFP-HN(N), or GFP-HN(M). Cell lysates were immunoprecipitated with polyclonal anti-GFP antibody. Immunoprecipitates (IP) or cell lysates were analyzed by immunoblotting using anti-HA or anti-GFP antibodies, respectively. (B) CSM14.1 neuronal cells were co-transfected with pcDNA3-HA-Bax together with plasmids encoding GFP, GFP-HN(N), or GFP-HN(M). Percent apoptosis was determined 48 h later by DAPI staining (mean±SD; n=3).
Rat neuronal cell line CSM14.1 cells were transfected with various plasmids using the Lipofectamine reagent (Invitrogen). For transfection, 10×10^5 cells were plated per well using 6 well plates. Each well received 1 μg DNA plus […] of Lipofectamine. After 24 hours of transfection, the percentage of cell death was determined using 4′-6-diamidino-2-phenylindole (DAPI) staining. […] The data shown were obtained using the cytosolic form of Humanin; however, both cytosolic and mitochondrial forms of Humanin were tested and the results were the same.
as §2
Since Humanin co-immunoprecipitates with Bax but not Bak, the effects of Humanin over-expression on apoptosis induced by these members of the Bcl-2 family was compared. […] Similar results were obtained regardless of whether Humanin was fused to the N- or C-terminus of GFP, with both of these GFP fusion polypeptides localizing to the cytosol of cells.

T1 sequence (Q07812 whole entry, species assumed, the tested form may be a part): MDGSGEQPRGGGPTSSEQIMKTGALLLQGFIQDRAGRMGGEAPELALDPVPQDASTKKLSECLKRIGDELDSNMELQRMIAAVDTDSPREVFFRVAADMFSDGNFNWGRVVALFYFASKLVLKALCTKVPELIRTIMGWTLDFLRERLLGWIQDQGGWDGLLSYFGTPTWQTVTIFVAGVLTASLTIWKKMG

1-12: GFP-fusion of Humanin truncation, residues 1-12 (MAPRGFSCLLLL; also: fused to GFP; UniProt Q8IVG9 1-12, looked up, fragment)
Bax binding (Bax [1]): − | Bax suppression (Bax [2]): − (failed to protect against Bax-induced apoptosis)

1-15: GFP-fusion of Humanin truncation, residues 1-15 (MAPRGFSCLLLLTSE; also: fused to GFP; UniProt Q8IVG9 1-15, looked up, fragment)
Bax binding (Bax [1]): − | Bax suppression (Bax [2]): − (failed to protect against Bax-induced apoptosis)

1-17: GFP-fusion of Humanin truncation, residues 1-17 (MAPRGFSCLLLLTSEID; also: fused to GFP; UniProt Q8IVG9 1-17, looked up, fragment)
Bax binding (Bax [1]): + | Bax suppression (Bax [2]): + (ability to suppress apoptosis induced by Bax over-expression by >50%)

3-17: GFP-fusion of Humanin truncation, residues 3-17 (PRGFSCLLLLTSEID; also: fused to GFP; UniProt Q8IVG9 3-17, looked up, fragment)
Bax binding (Bax [1]): + | Bax suppression (Bax [2]): + (ability to suppress apoptosis induced by Bax over-expression by >50%)

3-18: GFP-fusion of Humanin truncation, residues 3-18 (PRGFSCLLLLTSEIDL; also: fused to GFP; UniProt Q8IVG9 3-18, looked up, fragment)
Bax binding (Bax [1]): + | Bax suppression (Bax [2]): + (ability to suppress apoptosis induced by Bax over-expression by >50%)

3-19: GFP-fusion of Humanin truncation, residues 3-19 (PRGFSCLLLLTSEIDLP; also: fused to GFP; UniProt Q8IVG9 3-19, looked up, fragment)
Bax binding (Bax [1]): + | Bax suppression (Bax [2]): + (ability to suppress apoptosis induced by Bax over-expression by >50%)

3-24: GFP-fusion of Humanin truncation, residues 3-24 (PRGFSCLLLLTSEIDLPVKRRA; also: fused to GFP; UniProt Q8IVG9 3-24, looked up, fragment)
Bax binding (Bax [1]): + | Bax suppression (Bax [2]): + (ability to suppress apoptosis induced by Bax over-expression by >50%)

4-24: GFP-fusion of Humanin truncation, residues 4-24 (RGFSCLLLLTSEIDLPVKRRA; also: fused to GFP; UniProt Q8IVG9 4-24, looked up, fragment)
Bax binding (Bax [1]): + | Bax suppression (Bax [2]): + (ability to suppress apoptosis induced by Bax over-expression by >50%)

7-24: GFP-fusion of Humanin truncation, residues 7-24 (SCLLLLTSEIDLPVKRRA; also: fused to GFP; UniProt Q8IVG9 7-24, looked up, fragment)
Bax binding (Bax [1]): + | Bax suppression (Bax [2]): + (ability to suppress apoptosis induced by Bax over-expression by >50%)

10-24: GFP-fusion of Humanin truncation, residues 10-24 (LLLTSEIDLPVKRRA; also: fused to GFP; UniProt Q8IVG9 10-24, looked up, fragment)
Bax binding (Bax [1]): − | Bax suppression (Bax [2]): − (failed to protect against Bax-induced apoptosis)

13-24: GFP-fusion of Humanin truncation, residues 13-24 (TSEIDLPVKRRA; also: fused to GFP; UniProt Q8IVG9 13-24, looked up, fragment)
Bax binding (Bax [1]): − | Bax suppression (Bax [2]): − (failed to protect against Bax-induced apoptosis)

GFP Only: Green Fluorescent Protein control without Humanin [reference compound]
Bax binding (Bax [1]): − | Bax suppression (Bax [2]): − (failed to protect against Bax-induced apoptosis)

GFP-HN(M): mitochondria-encoded Humanin (SEQ ID NO:3, 21 amino acids, Met at position 16) as GFP fusion
suppression of Bax-induced apoptosis, nuclear vs mitochondria-encoded form (Bax [3]): suppressed to comparable extents | co-immunoprecipitation with tagged Bax (Bax [1]; 293T/HEK293T cells, anti-GFP immunoprecipitation): comparable amounts
